Laboratory results published in the RNAGym collection of RNA variant scans (doi:10.1073/pnas.2313332121).
Variants at the floor of the assay were thinned out.

B1: TPR 5TU (parent)
chain: GGAUCUUCUCGAUCUAACAAAAAAGACAAAUCUGCCACAAAGCUUGAGAGCAUCUUCGGAUGCAGAGGCGGCAGCCUUCGGUGGCGCGAUAGCGCCAACGUUCUCAACUAUGACACGCAAAACGCGUGCUCCGUUGAAUGGAGUUUAUCAUG

Variants of: B1
Assay: polymerase ribozyme fitness, log enrichment relative to wild type (log ratio); higher = more active; in vitro selection for triplet polymerase activity
Procedure, shortened: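 To select mutant libraries of each subunit of a heterodimeric triplet polymerase ribozyme, built by PCR and transcribed, each was annealed with a biotinylated primer, partner subunit and triplets, then incubated frozen at −7 °C. Extended constructs were gel-excised, captured on streptavidin beads and amplified by RT-PCR, in one round carried out in triplicate. Illumina sequencing of input and output libraries kept genotypes with ≥10 input reads and ≥1 read per output. Fitness is the base-2 logarithm of genotype enrichment relative to wild-type enrichment, from inverse-variance-weighted replicate averages.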

Row | Variant | polymerase ribozyme fitness (log ratio)
1 | C43A U44A A91U G141U A150C | ≤ -4.2
2 | G46C G48A A73U U77C G80U C87U | -3.85
3 | A47C G141C U148G | ≤ -4.2
4 | C43A U61A U127C C132U U145G | ≤ -4.2
5 | G46U G62A C76A C87U G88A C118U U134A | ≤ -4.2
6 | A47C C105A | -1.02
7 | G46C U77G A142C | ≤ -4.2
8 | A47U C93G | -3.23
9 | U44G A73G A91G A107C | ≤ -4.2
10 | U44C C54U | -3.56
11 | U44G A73U C85A C99U A142C | ≤ -4.2
12 | U44A U144G U151G | ≤ -4.2
13 | A47U A52G A119C | -1.05
14 | A47U C85G | -2.65
15 | A47U C85A | -2.21
16 | U44A C76A A91G | ≤ -4.2
17 | A47U A49C C51U C93A | ≤ -4.2
18 | C43G G86C A137G | ≤ -4.2
19 | A47G G50A A52U C63A A142C | ≤ -4.2
20 | U44A G92A C93A G141C | ≤ -4.2
21 | C43G U55A C96A A98C A121U | ≤ -4.2
22 | A47G G80A | -0.0419
23 | A47C A52U U82A A120U | -1.94
24 | G42U C85A C99U C108G A110G | ≤ -4.2

Row | Variant | polymerase ribozyme fitness (log ratio)
25 | A47G C99A A142U | -2.48
26 | U44A U56A U61A A97U | ≤ -4.2
27 | G46A U56A U82C C93A A107G C125U G136U | ≤ -4.2
28 | A47C U53A C85G U139A | ≤ -4.2
29 | C43G C95U C96A | -4.15
30 | G46C C54A U61A C63U G70A G84A C93U G100A C116G | ≤ -4.2
31 | G46A C85U A89G C96A A106C U145C U146G | ≤ -4.2
32 | A47C A89U A150G | -1.84
33 | U45A C114U | -4.01
34 | A47G C51G C76U C87U U104G A107U U151C | ≤ -4.2
35 | U45A C85U C118G A138U | -4.16
36 | G46A C54A G94C G117A A122U G124A | -3.11
37 | U45A A52G C116G | -3.56
38 | A47U C95U A115G | -2.68
39 | G46A A52C U139G | -3.91
40 | U45A C79G G84C C93G U102G | ≤ -4.2
41 | U45A C93A G141A | -4.05
42 | C43A C87U G136C | ≤ -4.2
43 | G46A G70U C85G | ≤ -4.2
44 | U44A U45A A49C C57U G70A G84U A91U C123G | ≤ -4.2
45 | U44A G67A U77G U78G C87A C95G | ≤ -4.2
46 | U44C G86U C103G G140A U148A | ≤ -4.2
47 | U45A G65A U82A A106U | -0.414
48 | U45G G50A C54U A120C G126C | ≤ -4.2

Row | Variant | polymerase ribozyme fitness (log ratio)
49 | U44G G136A | -3.71
50 | C43U C132U | ≤ -4.2
51 | A47U C57U | 0.131
52 | A47C C57G G58C | 0.275
53 | G46A G74C | ≤ -4.2
54 | C43U C63U A73C U78A G84U U90G C93U A119U A142U | ≤ -4.2
55 | U44A C85G U90C U104G | ≤ -4.2
56 | G46C C149U | -2.58
57 | G46U C99U | -1.06
58 | C43U G83U A120G | ≤ -4.2
59 | U45A U109C | -3.44
60 | U45A C85G | -3.95
61 | A47C U55A C87G A91G A150G | ≤ -4.2
62 | A47G G50C G71C G94A U134C | ≤ -4.2
63 | G42C A66C | ≤ -4.2
64 | U44A C54A U77A G92C C118A A120G G136C G140A | ≤ -4.2
65 | U45A G50A U135G | ≤ -4.2
66 | C43G U55C G70A C85A C87G C95U G133U | ≤ -4.2
67 | U44A C79U A89G U104A A107G | ≤ -4.2
68 | U45A A47U U77G C114G A122U | ≤ -4.2
69 | A47G U55A C116G | -0.139
70 | G46C G74C C87A | ≤ -4.2
71 | C43U G74C C93G U146A | ≤ -4.2
72 | U44A A52G C85A C118U | ≤ -4.2

Row | Variant | polymerase ribozyme fitness (log ratio)
73 | G46U C69U C96A A110U A121C | ≤ -4.2
74 | G42C U53A C99U | ≤ -4.2
75 | A47U G58C U61G G81A | -3.65
76 | A47C C96A | -0.697
77 | A47G G59C U61A G92C G141A U148C | ≤ -4.2
78 | G42C G83A A106U | ≤ -4.2
79 | U45A G50A U55G C87G G94C | ≤ -4.2
80 | U44A G50C G84U G88A U139C G152A | ≤ -4.2
81 | A47G G133C C149G | -3.65
82 | U44G G141A | -4.12
83 | U45A U77G G84U C118U | ≤ -4.2
84 | A47C U61A | -3.21
85 | G42U G50A C118U A122C | ≤ -4.2
86 | A47C C51A C54U U61A C79A C93G C95A C132U C149U | ≤ -4.2
87 | U44A U90G C93U G143A U151G | ≤ -4.2
88 | C43G C57A A60U G141C | -4.18
89 | A47U G70U A122G | -3.45
90 | U44A C116G | -4.19
91 | U45G C114U A119U | -2.4
92 | A47C C96A C123G U151G | ≤ -4.2
93 | G42U G59U G92U G126A U135A U144A | ≤ -4.2
94 | U45A A49G G83A C85U C99G U104C | ≤ -4.2
95 | U45G G50A C87A C103U G124A | ≤ -4.2
96 | G46A G143C | -3.81

Row | Variant | polymerase ribozyme fitness (log ratio)
97 | U44A G117A U135G | ≤ -4.2
98 | U44A C51U C76U A106U A110G | ≤ -4.2
99 | A47U C85U A150C | ≤ -4.2
100 | U45A G94A | -2.81
101 | U45C A52G C57A G92C | -2.64
102 | A47U A89G C131A | ≤ -4.2
103 | G46A C96U | 0.0159
104 | U44G A52G U53A C75A | ≤ -4.2
105 | A47C C87U C105A A119C | -1.51
106 | U44A G58C G92C G141U C149A | ≤ -4.2
107 | A47G U61G A142G | -2.82
108 | C43G G86A | ≤ -4.2
109 | G42C G92A | ≤ -4.2
110 | U45A C76U C125G | -3.81
111 | U45A A49G G84U A115G A120G | ≤ -4.2
112 | G46U A47C G58U C108U A119U G128U | ≤ -4.2
113 | A47U C54A C75G G140A | ≤ -4.2
114 | G46C U90A | ≤ -4.2
115 | A47C U56C G68A C125U | -4.09
116 | G42C C116G A120U A138G G141U G143A | ≤ -4.2
117 | A47C G92A A107G | ≤ -4.2
118 | A47C C57U C79A G94A U151G | ≤ -4.2
119 | G42C A60G A113U G140U | -3.85
120 | A47C U56G A91U C96G C118U A122C C131U U139C U148A | ≤ -4.2

Row | Variant | polymerase ribozyme fitness (log ratio)
121 | U44G C57G A91U A107G C125U U130C U135G | ≤ -4.2
122 | C43U C54U U61A A64C G84U U127A C131G A142G | ≤ -4.2
123 | G42U A64C C79U G88A A106G A107C A147U | ≤ -4.2
124 | G42C G86U U109G G141U | ≤ -4.2
125 | U44G A120U | ≤ -4.2
126 | U44G A49C C93U C125U A150U | ≤ -4.2
127 | U45G C116U | 0.00932
128 | U45G G50C G81C C85A C118A | ≤ -4.2
129 | U44C G88A U135A U139G | ≤ -4.2
130 | G42C A89G G92A G126U G133A | ≤ -4.2
131 | U45A A60G | -2.47
132 | U45A A47C C54A C57A U90C G140C | ≤ -4.2
133 | A47G U55A G84U G128A | ≤ -4.2
134 | A47C C51G C87U A89U A107G | ≤ -4.2
135 | A47C U53A C95U G136C | -3.62
136 | U44A G84A C85G C95G C99U | -3.94
137 | A47C C69A A89G G124A | -3.28
138 | G46C C93U C96U | -2.86
139 | U44A A52C | -3.94
140 | A47G A147U | 0.466
141 | G42C C51U C103G | ≤ -4.2
142 | A47C U82G A142C | -2.54
143 | C43G G88A C95U C105A | ≤ -4.2
144 | A47C C51U C54U A73C A122U | ≤ -4.2

Row | Variant | polymerase ribozyme fitness (log ratio)
145 | G46C C76U U102C C116U A137C | ≤ -4.2
146 | A47U A52G U144G | 0.507
147 | C43A G80C G94U | ≤ -4.2
148 | G42C U55A A60U C87U A115U | ≤ -4.2
149 | G46U G59A G74A G84C U104C G112C U134G U145A | ≤ -4.2
150 | A47C A107U C108A | ≤ -4.2
151 | U45A A52G C63G A64U G70C A89C U101G C116A | ≤ -4.2
152 | C43U U56A A66C C75A C85G | ≤ -4.2
153 | G42U A52C C93U | ≤ -4.2
154 | G42C U101G G136U | ≤ -4.2
155 | C43U C72U G92U | ≤ -4.2
156 | G46U A91C C105U C114U U146G | ≤ -4.2
157 | U44A G50A U77A U78A C93G A115C G133A G141A | -4.14
158 | G46C A52G A137G | -2.44
159 | A47C G124U | -1.09
160 | G46A A47C U53A C57U A107U G117A | ≤ -4.2
161 | A47G C54A | -1.65
162 | U45A G83C C105U C131G | ≤ -4.2
163 | U44G A60U A115C | ≤ -4.2
164 | U44G G81C C96U C108G | ≤ -4.2
165 | G46A G83A | -0.911
166 | C43A C87A A89G C93U | ≤ -4.2
167 | G46U C85A | -2.02
